Molecular target: TLR5 on RAW 424 (TLR5+) cells
Assay: cell-based or functional assay

| Substance | TNF-α production by RAW 424 (TLR5+) cells, half-maximal stimulation [pM] |
| --- | --- |
| P. aeruginosa type A flagellin (strain PAK), recombinant full-length (from UniProt P21184 2-394) (ligand) | 16 |
| P. aeruginosa type B flagellin (strain PAO1), recombinant full-length (from UniProt P72151 1-488) (ligand) | 4e+07 |
